A short description of this data set: soluble on expression in E. coli; label from the status in PepcDB or PDB records.
For “MRRRRVLLLLLSTTTFLRVSTAQQDEPKASVVEVQTKLGTVRGTESDHGNKRVRSFLGVPFAEPPINEHRFKKPTPARPWNGTISANTLSPACFQGRDSYDPTFWGSEMWNANTPVSEDCLYVNIWAPADAYNLTVLVWLFGGGFWYGSPSLLLYDGKELATRGNVIVVNINYRVGPFGYLFLDHEDVPGNMGMLDQQLALYWIRDHIFSFGGNPARISLVGESAGAASIVAHLIAPASKGLFQNGILQSGSLDNKWSMDSPKRAKQKSTALADLVGCNQTKITDQTACLRNTPAQLLIDNIWNVGLNFLEFPFAIVSKDQNFFKHLDGFIALREGTYSTDVNLMFGINHDEGNFWNIYNLAKFFDKQSVKPGLDRDEFHECVDTAFAVQPELVRTAAKYVYSDPKCTDPKKKTDFYTEQVNQMVGDYFFTCDSIWFAHNYPKMAGNQSNVFVYYFDQPSSANPWPKWTGVMHGYEIEYVFGVPLHNTTAGYTKEEMDVSEKVIDFWTTFANTGVPSLRKRAVGTTQKIKWDRYDGTDHTTWMNIKTGSFRMIQEIKKVECDLWRNAKDMEYSAYKEELATTSSSTLTQYTIYLILLSAFQLVFNFF”, the “soluble on expression in E. coli” value is given as “not soluble”.
For the sequence “MGSDKIHHHHHHMKIGIVISGGDVSGMNNFIFQIARQANADITLFNGGIPGLLEKSHQDMAWRDLVDYSITAVPIITSGRTSRKLQRSEYESIAKKLKSLRIDVLIMAGGDGSLQFLNTLSEFEINCFGVGMTIDNDVYGSDYTIGFSTACEQIIKEVSRLRNTGRALPGRVFMVEILGGYCGELTLQSAIKCNADIALIPEAQMPLAVLAERITRKLSAQNSVVILCSEGYTKEYSPGFQGAIDTMIKQLEPQIGVRIRKTIVGYGLRSGDPTCEEIYQGTIMASEVVRCIQSGMKNKAIIINSSNKPIPIDLVSMKKRLVDTEGHHYKLAKQLNII”, the “soluble on expression in E. coli” value was “not soluble”.
Regarding “MGSDKIHHHHHHMKFFSAPSPATRPPMRNRLPPLNPLRAFEAAARCGTVSAAADELHVTASAVSHQIRILESTLGVALFVRSKARVKLTPEGEALLEPVGAAFDMIANATVRLDSPAAAGDLVVSTPLSLTSRWLARHIGDFLERYPGIHLKVIPSNDDRETYSPDVDVCIRYGEGNWRNRRVELLAHPALFPVVSPALMNGPDAIRKVQDLAGRTLFCEHAGSWMRWLAEANADKLPGIRILEIGNAHIGVEAAVHGQGVALGDSLSVRDDLLDGTLVRPFSAAVPSRHAYYLVTRHELADSPLVTAFTTWLRACLA”, the “soluble on expression in E. coli” value was “not soluble”.
For “MYTHNSSDSIDCNIQSLYRGPQPGRYVRPTGKAVKQVKMEPYSPYSWGDKPYHSLNYYLKQTFGEKIYKLALDGAMTCPNRDGTLGTGGCIFCSGGGSGDFAEPQHASVTEQIEAAKARVSAKIKNGRYIAYFQSYTNTYAPVDYLEALFREAVSHPDIAALSIGTRPDCLPPQVIRLLKEINKEKPVWIELGLQTIHESTAELIRRGYELPCFIDAVRRLKEAGLTVIVHVILGLPGETEDMMLETIRFLANHTPPVDGIKLQLLHVLKGTKLAALYEAAPFPVMTMEEYIDLILKCIRLLPPHIVIHRLSGDGPKKLLIAPEWSGNKRLFLNSLTRALRETGAYQGEWHRPRQP”, the “soluble on expression in E. coli” value was “not soluble”.
On to “MSLAKHIVELTDALSNKIAAGEVVERPASVVKELVENAIDAGSTVIDILVEEAGLNKITIIDNGSGIEEEDVATAFLRHATSKIKNEADLFRVHTLGFRGEALPSIASVSHLEMETSTGEAKGTTISLEGGKIIEQKSGHARKGTQIEVSQLFFNTPARLKYLKSLPTELGNITDILNRLALAHPDISFRFSHNGKPLLQTNGNGELRQVIAAIYGVSIAKKSVPVKAESLDFKISGYAVLPEVNRSNRNYISTIINGRFIKNFALVKAIQEGYHTLLPIGRFPIIVLQIEMDPIIVDVNVHPAKLEVRLSKEKELGQLISQMIKETFHKLQLIPDGEISKEGHHHHHH”, for which the “soluble on expression in E. coli” value is recorded as “soluble”.
To “MENKTNNTKTEIKKKDMSKTFETIKGELFFEDKVIQKIIGIALDEIDGLLTIDGGFFSNIAGKLVNTDNTTSGVDVEVGKKQVAVDLSIVAEYGKDVTTIYDKMKQVISNEVKKMTGLDVIEINVNVVDVKTKEQHENDSVTLQDHLSDAASATGEFASKQFEKSKEALGVASEKVSDGVQNVKEETEPRVKLEHHHHHH” belongs “soluble”; to “APTIPQGQGKVTFNNTVVDAPCSISQKSADQSIDFGQLSKSFLEAGGVSKPMDLDIELVNCDITAFKGGNGAKKGTVKLAFTGPIVNGHSDELDTNGGTGLAIVVQGAGKNVVFDGSEGDANTLKDGENVLHYTAVVKKSSAVGAAVTEGAFSAVANFNLTYQ”, “soluble”.
Turning to “SMGGFMEDLRKCKIIFIIGGPGSGKGTQCEKLVEKYGFTHLSTGELLREELASESERSKLIRDIMERGDLVPSGIVLELLKEAMVASLGDTRGFLIDGYPREVKQGEEFGRRIGDPQLVICMDCSADTMTNRLLQMSRSSLPVDDTTKTIAKRLEAYYRASIPVIAYYETKTQLHKINAEGTPEDVFLQLCTAIDSIFL”, the “soluble on expression in E. coli” value is “soluble”.
Then “MMRNFGREFLEETSIFENKTCLIWRDREISFKEFHEYIGKWKNVLDEQKTKTTNPLRIALFCTNSPDILAIIVAGQLSGVTVIPLNPSYKKYEIDEYISKSIANFIIVSDDVDLDKFEEREVNLISELFTSNVTPSSTASTPENQGVIVFFSSGTTGPPKQFEYTQRILCSQIDQIKAIRSDPRFFSPSTDDICYGVLPFFHAGGLITILSMIFSGCTVLINERWNEHEFLANCQNYKVSVLFLVPPVLNFFANHPLVSSYDLSALKTIYVGAAASPPENFAKVAERLPELENLIQLYGTSECGVLLCSTGKGKASGKTVGWPFPFVELKINPENNEIFVKSATAMEEGFMETGDLGCLSFKTIELMIVGRSKEMMKIRGWQVNPNEVEDVIRKVEGVLDCAVYQNQEKLTAKIIGNPDSKADIFKIVKDNLASYKQLDDVIFVEELPRNPSGKLVRHMLH”, with “not soluble”; and “MGSDKIHHHHHHMRRFFKNNLRNLSQNGETNSVRRCFALADVTVVINGRTLTVPDNLTVIEACEKAGIEIPALCHHPRLGESIGACRVCVVEVEGARNLQPACVTKVRDGMVIKTSSDRVKTARKFNLALLLSEHPNDCMTCEANGRCEFQDLIYKYDVEPIFGYGTKEGLVDRSSPAIVRDLSKCIKCQRCVRACSELQGMHIYSMVERGHRTYPGTPFDMPVYETDCIGCGQCAAFCPTGAIVENSAVKVVLEELEKKEKILVVQTAPSVRVAIGEEFGYAPGTISTGQMVAALRRLGFDYVFDTNFGADLTIMEEGSEFLERLEKGDLEDLPMFTSCCPGWVNLVEKVYPELRTRLSSAKSPQGMLSAMVKTYFAEKLGVKPEDIFHVSIMPCTAKKDEALRKQLMVNGVPAVDVVLTTRELGKLIRMKKIPFANLPEEEYDAPLGISTGAAALFGVTGGVMEAALRTAYELKTGKALPKIVFEEVRGLKGVREAEIDLDGKKIRIAVVHGTANVRNLVEKILRREVKYHFVEVMACPGGCIGGGGQPYSRDPEILRKRAEAIYTIDERMTLRKSHENPAIKKLYEEYLEHPLSHKAHELLHTYYEDRSRKKRLAVK”, with “not soluble”.
Then “MSQYERFDSVLLSMAQQLSGGVPEMLDVLFEFLSRKTDFYSGAGVDQARTLLLEKFDKHGGKAMKEAEEAKKRKEEQERKLAERRAAQKAKEEEEFRNAKVVEVTDEEAAAFEKEQAKNSVENLEKFVDNEGETSKDAEVEDEDSKLMKPNSGNGADLAKYQWTQTLQELEVKIPIAAGFAIKSRDVVVKIEKTSVSVGLKNQAPIVDGKLPHAIKVENCNWVIENGKAIVLTLEKINDMEWWNRFLDSDPPINTKEVKPENSKLSDLDGETRAMVEKMMYDQRQKEMGLPTSDEKKKHDMLQQFMKQHPEMDFSNAKIG”, with “soluble”; and “MGHHHHHHSHMKTRQAFYLHTTKLTRIARRLCREILRPWHAARHPYLPINSAAIKAECTARLPEASQSPLVLKQAVRKPLEAVLRYLETHPRPPKPDPVKSVSSVLSSLTPAKVAPVINNGSPTILGKRSYEQHNGVDGNMKKRLLMPSRGTYLGLANHGQTRHMGPSRNLLLNGKSYPTKVRLIRGGSLPPVKRRRMNWIDAPDDVFYMATEETRKIRKLLSSSETKRAARRPYKPIALRQSQALPPRPPPPAPVNDEPIVIED”, with “not soluble”; and “MSLKVYVVKKGYRPGIYHSWPEAEEQVKGFPGAEYKSFSNIMEALDYQQMDPEDALKALQGAEDKLQAAIAKVRQGGSKKKQAESQKEFAASSKYAAHIFTDGGCRNNGTHKGGHVQADDKAAWAYLIEYGGQKLSASGGRFGATNNEMEMTAFLESLKKLEELGLNDQPLLFSLDSQYVIKAVSDNDQGPAWIKGWQRRGWKKADGSPVANRELWQEIAKEMAKFAQPEFEWVKGHANSAGNNFVDGLLNKYMDQEGHHHHHH”, with “soluble”.
Then “MIPLEKPGSGGSSPGATSGSGRAGRGLSGPCRPPPPPQARGLLTEIRAVVRTEPFQDGYSLCPGRELGRGKFAVVRKCIKKDSGKEFAAKFMRKRRKGQDCRMEIIHEIAVLELAQDNPWVINLHEVYETASEMILVLEYAAGGEIFDQCVADREEAFKEKDVQRLMRQILEGVHFLHTRDVVHLDLKPQNILLTSESPLGDIKIVDFGLSRILKNSEELREIMGTPEYVAPEILSYDPISMATDMWSIGVLTYVMLTGISPFLGNDKQETFLNISQMNLSYSEEEFDVLSESAVDFIRTLLVKKPEDRATAEECLKHPWLTQSSIQEPSFRMEKALEEANALQEGHSVPEINSDTDKSETEESIVTEELIVVTSYTLGQCRQSEKEKMEQKAISKRFKFEEPLLQEIPGEFIY”, with “soluble”; and “GAMDIVVNDDLSCRFLEGFNTRDALCKKISMNTCDEGDPFFVADLGDIVRKHETWKKCLPRVTPFYAVKCNDDWRVLGTLAALGTGFDCASNTEIQRVRGIGVPPEKIIYANPCKQISHIRYARDSGVDVMTFDCVDELEKVAKTHPKAKMVLRISTDDSLARCRLSVKFGAKVEDCRFILEQAKKLNIDVTGVSFHVGSGSTDASTFAQAISDSRFVFDMGTELGFNMHILDIGGGFPGTRDAPLKFEEIAGVINNALEKHFPPDLKLTIVAEPGRYYVASAFTLAVNVIAKKVTPGVQTDVGAHAESNAQSFMYYVNDGVYGSFNCILYDHAVVRPLPQREPIPNEKLYPSSVWGPTCDGLDQIVERYYLPEMQVGEWLLFEDMGAYTVVGTSSFNGFQSPTIYYVVSGLPDHVVRELKSQKS”, with “soluble”; and “MGSDKIHHHHHHMNKYNQLGSVRYNQLGRIKYNSRGAREVKPLFNRLAQARPVILDQNRRRLAILENADNIILEQEINGIDQVTFTLPWKDEKRKYLVNENLVQLVNSIYIIRRVSVKRSGLSPAEIEVYAEALWYDLQFAEPVEHARWESATPEVIMKDILDGTGWRVGKVTITRERTLELEAGFTNRLKALYELPSLFGGELHFNTDTMTVDFTEPVGRKSGAAIAYSKNLEEVEAIYDTEELVTKLYLYGKNNMSIADANDGVPYLTDFSFTDKVRVRVTKDERFTNPYHLKERGEEALKVLARPRSSYVLRAADLSALSGMSHEEFFLGDEVLVYDKELGINVRTRIVSWKYNVIQPWNTELQLESKQPSLSDLLTGIQEGAEFLYSEDAVERDEMLNLHVFNYLMNSRGDDGFNYWTNDGWELDAENGYSGNASFRATAQPGVKKSLRQTIYPAHRDSYSLSLRVATENLRVGNGRVGVYVKFKYQDGTEEEPIWIPLSEDE”, with “not soluble”.
“MSRPLGFIGYEFGDDEMFVQQMIEKKSNAEQAKMLEQQKKMLECTETMPEESEPVPMKCLDFEEAFQSESVSKGYESPYKNISFLKEDAVTVNTMSHCPADDIAKLIRNIQNSVYTLGIEEARQCRRGKLLNVLKPTGSASPRYLQPTPPKNVAEETTGSQ”: the “soluble on expression in E. coli” value was “not soluble”.

The values are drawn from the DeepSol protein solubility set.
